From article PMC8387475

Target: UBR5 (UniProt O95071)
Assay: co-immunoprecipitation, immunoblot
Settings: reference: wild type SIRT7; sites T255,S259

SIRT7 (from UniProt Q9NRC8) SIRT7-2A (T255A/S259A)
binding against the reference: stronger
